According to PMC8843743, “Targeting a proteolytic neoepitope on CUB domain containing protein 1 (CDCP1) for RAS-driven cancers” (The Journal of Clinical Investigation, 2022):

Molecular target: T1, NTF of recombinant c-CDCP1 cut 3 (human, UniProt Q9H5V8 30-369)
T1 construct: CUB domain containing protein 1 (CDCP1), human; NTF with the native cut site 3 (proteolysis after K369); NTF (aa 30-369); The NTF alone was also made as NTF-Fc; also called NTF (cut 3); NTF (aa 30-369); source: BirA-Expi293, cotransfected with the CTF plasmid, purified (protein A or Ni-NTA)
T1 sequence (looked up): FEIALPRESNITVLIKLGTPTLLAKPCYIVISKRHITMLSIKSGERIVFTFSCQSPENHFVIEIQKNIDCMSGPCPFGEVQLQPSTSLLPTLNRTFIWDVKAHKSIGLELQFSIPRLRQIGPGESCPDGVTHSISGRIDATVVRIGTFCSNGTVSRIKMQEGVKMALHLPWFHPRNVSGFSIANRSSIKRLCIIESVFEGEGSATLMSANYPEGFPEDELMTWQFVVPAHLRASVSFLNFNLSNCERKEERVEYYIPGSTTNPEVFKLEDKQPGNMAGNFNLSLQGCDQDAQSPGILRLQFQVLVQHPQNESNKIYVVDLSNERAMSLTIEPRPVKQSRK
Test: co-purification after co-expression; NTF and CTF ectodomain on separate plasmids cotransfected in BirA-Expi293; protein A or Ni-NTA affinity chromatography; SDS-PAGE
Settings: partners not purified

B1: CTF ectodomain of recombinant c-CDCP1 cut 3 (domain or fragment, human, UniProt Q9H5V8 370-665, looked up)
chain: FVPGCFVCLESRTCSSNLTLTSGSKHKISFLCDDLTRLWMNVEKTISCTDHRYCQRKSYSLQVPSDILHLPVELHDFSWKLLVPKDRLSLVLVPAQKLQQHTHEKPCNTSFSYLVASAIPSQDLYFGSFCPGGSIKQIQVKQNISVTLRTFAPSFQQEASRQGLTVSFIPYFKEEGVFTVTPDTKSKVYLRTPNWDRGLPSLTSVSWNISVPRDQVACLTFFKERSGVVCQTGRAFMIIQEQRTRAEEIFSLDEDVLPKPSFHHHSFWVNISNCSPTSGKQLDLLFSVTLTPRTVD
notes: CUB domain containing protein 1 (CDCP1), human; CTF ectodomain with the native cut site 3 (proteolysis after K369); CTF (aa 370-665); also called CTF (cut 3); CTF (aa 370-665); source: BirA-Expi293, cotransfected with the NTF plasmid, purified (protein A or Ni-NTA)
binding result: binds
